Test: label from the status in PepcDB records

MLNRGGFTYPGQRWKHCINTLLTGGVLLIVSASAYADSNALGYKIPGYELVYDAPMETTLTTPDLRPSDAVWISLFDNAQHTIELGQFYVANQAGTRLDSVLQHLRAAGERGVRIRLLLEEKGLKISTQDTLDQLKTIPNLELRVIPFERLSGGILHAKYLLVDGKQAYMGSQNLDWRALEHIHETGLLIDDPRVVNQISTIFEQDWQAQARLSNGETVPPLPASTDAVDRSGNYLVASPKAFNPAGVMDSEEELPRLLAEAQQQVRIQVMDYVPLSYGPDKTRPFYAVIDNAIRTAAARGVQVELMVSEWSTKMPNIAYLKSLALLPNIQIKTVSIPQVSSGFIPFARVIHSKIMTIDGTKTWIGTSNWSGGYLDNSRNLEMVIQNPAMAQRVDLLYTQLWNSAYAHPLRIDYDYPQPNPGGVKEKEQENTASSTTGGTVTAP
protein production: failed

VDDTVNVANEYSRYPLENYQLDFYVDNSWGWLPWNWSDGIGKQVMYGLYAITNFIWTISLYVSNATGYLVQEAYSLDFISATADSIGKNMQTLAGVTPSGLSTEGFYVGFLLLLILVLGVYVVYTGLIKRETTKAIHAIVNFVMVFILSASFIAYAPDYIKKIN
protein production: failed

MNIQSELEFKFAHYLINNAVEASFCLGDNWQFLYVNDATCRMTEYSREQLLSMNLQDIDVDFALHDWEEIRQKNNYTFKTRYRSQSGRIFLVEMSLTFLEDQERRFSCVFVREKS
protein production: not failed

MSLTTMLEVAKRAGVSKATVSRVLSGNGYVSQETKDRVFQAVEESGYRPNLLARNLSAKSTQTLGLVVTNTLYHGIYFSELLFHAARMAEEKGRQLLLADGKHSAEEERQAIQYLLDLRCDAIMIYPRFLSVDEIDDIIDAHSQPIMVLNRRLRKNSSHSVWCDHKQTSFNAVAELINAGHQEIAFLTGSMDSPTSIERLAGYKDALAQHGIALNEKLIANGKWTPASGAEGVEMLLERGAKFSALVASNDDMAIGAMKALHERGVAVPEQVSVIGFDDIAIAPYTVPALSSVKIPVTEMIQEIIGRLIFMLDGGDFSPPKTFSGKLIRRDSLIAPSREGHHHHHH
protein production: not failed

MWSGVVTERKISRRLRLIKRVREEYVRDDVSCGFECCGGPCRASGKASVFAIPDANVVSRYRALLKSDYVAAIICQSVLSELSKNDERGLRDVARERGYPVFCDSFCRSTHGKGLEGVLEFYRAHLPQHNFTILDIGNIGEYGRYVSDDIRDLLENVDEKEATEYEEYVENLDILYGRKGLYRGTLEVSMYNCYSGFVVDGDVKVLVVGKKNMNRALSGDEVYVEVVDEYDEDGILLDNEEGTQETRKGAAGEGVFGKVVGIHRRKCRAVIGSISPRTVHGDGAQNVLVIPIDRRIPAIRIRTSQAEELMNKRLCVEIDGWERTSNYPSGHYYRRLGTLGDRNAEMEAVLVANGITYYNKNWAEILRVPWMNEDIFGMEKAYNEVREGTREDFRELSIVSIDPPDCEDIDDALHCRLLPNGNWEVGVHIADVTYYVTKGSEIDKIAADRGTTIYLPEWRIDMLPPALSTDLCSLVAGKDRAAFSVVWEMSSDVRVVRTHFCRSLIRSKRSFSYNEAYDAVQGLVDAGDEVSRSLRMLLEISRVLRSRRFAKGSLDLSTRQLVFREGGFEMKEYFPTNFLVEEFMVLANISVASFIYHHHPDSSLLRKHPPPSVLDIGLDIDTSSPRALSESLEKMEGVRKDLAKRMLIRSMNQAVYVVSGETPSLHHYGLATPIYTHFTSPIRRYADIIVHRILNHILQTAPTKEAQINKLGIVTFRARKRTDGESMDEVFVDEDMCRNMNSRHRAARKAAWECDKLTVYMALRNEEPVVRGFVTNIKPNGIVVYVPEYSLEEVVVSEGCFEMFQEVWVKIRRDDEKFFLRRRFTFEIVGLSSPC
protein production: failed

MTLMCSIAGIYLAKLPYANIIGALVLALLLGILMQLAPEKMRKEASSGMSFISNKFLRLGIILLGFRLDLEKLAAAGVKTILVAALAVAGTITLTYWLSRKFGAEDELAFLSACGCGVCGAAAVMGVSPQITAASEERKRENEVLAVAVVCVMGTVFTLLEIGLKPVLGLTDSQFGIVAGGSLHEIAHAVASGGAFGNISLDSALIMKLSRVILLAPVALIIGYLYQRRTAKVSTIDSTTKTGKLPIPWFLGGFILTSVLGTYLPFSTSLLDALVQVAYIFLGMAMAALGISVNFKVIFKRGGAVFGAAAISSTCLLIFMIIMSKLFF
protein production: failed

MVEVTIWLAFFAGVVSFLSPCVFPLVPVYLAQLTGTQISGNEITADRKLILMRSLGFILGFTSIFIFLGASSTFIGQLFWGNRQLFEQIGGIIITVFGLQMMGVISIRMLLSEKRLQAKPRQSASFANSVLIGFLFATGWTPCIGLVLGAILVLAGDANTMWSGMSMLFVYSMGLAIPFFLVALLWSRSLHKVRKLNKWLPTIQKGSGVVMVALGVLLFTGQFSTIAAYLARINPFGI
protein production: failed

SNQLQQLQNPGESPPVHPFVAPLSYLLGTWRGQGEGEYPTIPSFRYGEEIRFSHSGKPVIAYTQKTWKLESGAPMHAESGYFRPRPDGSIEVVIAQSTGLVEVQKGTYNVDEQSIKLKSDLVGNASKVKEISREFELVDGKLSYVVRMSTTTNPLQPHLKAILDKL
protein production: not failed

MFTLRELPFAKDSMGDFLSPVAFDFHHGKHHQTYVNNLNNLIKGTDFEKSSLFDILTKSSGGVFNNAAQIYNHDFYWDCLSPKATALSDELKGALEKDFGSLEQFKEDFIKSATTLFGSGWNWVAYNLDTQKIEIIQTSNAQTPVTDKKVPLLVVDVWEHAYYIDHKNARPVYLEKFYEHINWHFVSQCYEWAKKEGLGSVDYYINELVHKKA
protein production: failed

MGHHHHHHSHMGKGTFVYRTTITSPHEEVWAFFSSPTNLQTLTKIPKVVLDSTSETTQGSEIEMKLFVLGIPFQWKAYIEAYNPPFSFTDVAIKMPFPIVYWRHTHRFTTEGERTVMIDEIQYEIKMANKLVIFFLRRMFRARESALHRYFQS
protein production: not failed

MDLGILSQLLILLFVSMLLGVLFSKFKIPDVVAYILTGVLVGNGFLKIVSPSVPISDIESVSLFFIILAIGVEANTEYIYGNVRRSIILTISSFIAPSMLGFLYLQAVAHLPIIPAFVLSMSVGVPSISIISVLLMRYDLLKLNAGRLILSSVVLTDTSAFIILSSTYESVTKVLISFGFVVLFLFAIWLFDILIRRRAGRIIEWISRRETDNNMEYILFSLVIIAGLLVSTLFEFIGITYVLGAFYAGILIHEASIGQKYHKIILNTIKRINDSFFIPLFFSIAGISMILPKISIFMIFLPALLILMGASGGLTYLVSHRLIRSLEPIKVVSILGGRGAVGVIIATIAFQSGIIDVAVYSLALIGTVIFSLVMTPLVSIGNAPSQNDDVRYS
protein production: failed

MTTPSRRILILVGHPDPAPERFCRALAEAYAQGAMEGGHEVRRADIGSMDIALLESQAAFQVDDAPQSIRDLRADIVWAEHLVLVFPLWLGGAPAKLKAALEQVCRGGFGFEVGPRGWSSKLAGRSARMVLTMGMPSAIFRLVFGSHGLKAVTQGIFMLAGVKPRRASIIGGVEAIGAGGRSRWLKRMGHLGEAAR
protein production: failed

MAAYLERCDSVEEDYIDMEVTSFTNLVRKTLSNNYPREFEFQMSHLCPLEIDKTTSPADELFYKGKLLPLHLPPRLQMVQKILEDYTFDDEFYSTPLATGTVTTPVTSNTPFESCTVSPAESCQVSKELNPEDYFLEYSDSLEEDDEKKKSWTTKLRLMKQSSLGTKIKASRAYLRSFFGKTSCSDESSCASSAARVADEDSVLRYSRVKPFGQIKTERPKKQSNGSVSGSHRRSFSVSMRRQAAKSSNNKSSNSLGFRPLQFLKRSTSSSSEIENSIQGAILHCKQSQQQKQKQKQYSTVNEVGFCSLSASRIAARDDQEWAQMFRG
protein production: failed

MIVKCPICDGTGKKVVKYKTCPVCEGTGFIDEFSPKQHMKRVSKRATYDLDYGEIPCPKCKGTGKVPVYAKCDFCGGSGKVVKCDRCGAIIGKYPDFKDRTLCDKCLKEEEERKKGLRNVYVFDELATFYDVEPGKFYKGVVTRIEKYGAFINLNEQVRGLLRPRDMISLRLENLNVGDEIIVQAIDVRPEKREIDFKYIPLTTYDLVKYEKEVPLSQIKDISQNLVEMRDQVVHIRGEVVQIVQTPGPTVFTITDGTDFAWVAALEIAGLRAHPDVKVGDIVDVIGRVTIRDGRLQIERIKLQKLEGDEAEEIRKKIEEEIDRRAEPAKDIPFLVKSEVLERLRPKMADVAKRIRKAVLDGRPIIIRHHADTDGYCGGIALEKAILPIIDKFAIDVDAIWHFFKRRPSKAPFYELEDVTKDLVFSIEDALKFGQKLPLIVLIDNGSTDEDIPAISKAKAYGIEVIVIDHHFPGEVVDGKVEVDDYVDAHVNPYLVGGDSNLTAGVLGTEIARMINPDVEDEIKHIPGIAVVGDHAKGEEAEQYVKIALDRLNELSKKYGKGRTYDREYLEKIALCMDFEAFYLRFMDGKGIVDDILATNIKEFGRHEELIDILYEQAMKMVERQMKAVIPALKTEFLENGIILNTLDVEKYAHKFTFPAPGKTTGFAHDYIVQKYGEDKPIITLSYGPDFGVVRATDAVHEKYNFNLNLIVEQLMEEIPEASLDGGGHECAGSLKFVEGLRDKVIGRFIEIIKNMKPKEQ
protein production: failed

MEPNIYQLALAALFGASFVAVSGFFMHFKALNLVLERGKERKENPDGDEPQNPTLVRRRSQVRRKVNDQYGRSPASLPDATPFTDGGGGGGGDTGRSNGHVYVDEIPPGLPRLHTPSEGRASVHGASSIRKTGSFVRPISPKSPVASASAFESVEESDDDDNLTNSEGLDASYLQANGDNEMPADANEEQISMAASSMIRSHSVSGDLHGVQPDPIAADILRKEPEQETFVRLNVPLEVPTSDEVEAYKCLQECLELRKRYVFQETVAPWEKEVISDPSTPKPNTEPFAHYPQGKSDHCFEMQDGVVHVFANKDAKEDLFPVADATAFFTDLHHVLKVIAAGNIRTLCHRRLVLLEQKFNLHLMLNADKEFLAQKSAPHRDFYNVRKVDTHVHHSACMNQKHLLRFIKSKLRKEPDEVVIFRDGTYLTLREVFESLDLTGYDLNVDLLDVHADKSTFHRFDKFNLKYNPCGQSRLREIFLKQDNLIQGRFLGEITKQVFSDLEASKYQMAEYRISIYGRKMSEWDQLASWIVNNDLYSENVVWLIQLPRLYNIYKDMGIVTSFQNILDNIFIPLFEATVDPDSHPQLHVFLKQVVGFDLVDDESKPERRPTKHMPTPAQWTNAFNPAFSYYVYYCYANLYVLNKLRESKGMTTITLRPHSGEAGDIDHLAATFLTCHSIAHGINLRKSPVLQYLYYLAQIGLAMSPLSNNSLFLDYHRNPFPVFFLRGLNVSLSTDDPLQIHLTKEPLVEEYSIAASVWKLSACDLCEIARNSVYQSGFSHALKSHWIGKDYYKRGPDGNDIHKTNVPHIRVEFRDTIWKEEMQQVYLGKAVISDEVVP
protein production: not failed

SGGRRSSWIKNWTLWKHFKDYFPIHLIKTQDLDPSHNYIFGFHPHGIMAVGAFGNFSVNYSDFKDLFPGFTSYLHVLPLWFWCPVFREYVMSVGLVSVSKKSVSYMVSKEGGGNISVIVLGGAKESLDAHPGKFTLFIRQRKGFVKIALTHGASLVPVVSFGENELFKQTDNPEGSWIRTVQNKLQKIMGFALPLFHARGVFQYNFGLMTYRKAIHTVVGRPIPVRQTLNPTQEQIEELHQTYMEELRKLFEEHKGKYGIPEHETLVLK
protein production: not failed

GLGGFTRTRNKGKSNVIDMIQKYIESKGMPIENWDITVGYCTNLEEAEKYRDDVEAQLGVKLLERREDFKTRISIISGCHTGPYALGIACIPKYTTIRL
protein production: not failed

NLSELTPYILCSICKGYLIDATTITECLHTFCKSCIVRHFYYSNRCPKCNIVVHQTQPL
protein production: not failed

MFLVTGATGDIGRRVIRLLREHNHSVRGFARLTSRYGELEHRGANIFIGDLRREQDIEKACQGVQYIISAHGSDNDALTLDYRANIALIDQAKANGVQHFVFISVLGAERGYEDAPVFKAKRAVENYLAASGLNYTILRPAGLASNLLPLAERFRETGLYLLIGDPKNRTSIVSTDDLARIVVDSVTVPEARNQIFSVGGPEILLREDIPQIFSHIFKKEPIVVNSPLLVIDGLRGVLGLINPEAQQALGTFRTLLSNEFFCRKDEIAKLEQTFNFPLETLESFLRRYLAVLEHHHHHH
protein production: failed

— a protein production outcome set (Wang et al. 2014)
